Test results reported in US20190203210A1.

Key:
FLAG-HA-Atoh1 [1] = molecular target: FLAG-HA-Atoh1 (UniProt Q92858); experiment: anti-HA IP of FLAG-HA-Atoh1 293T lysate, LC-MS/MS, ComPASS
FLAG-HA-Atoh1 [2] = molecular target: FLAG-HA-Atoh1 (UniProt Q92858); experiment: MS of 450 kDa Coomassie band from FLAG-HA-Atoh1 IP
FLAG-HA-Atoh1 [3] = molecular target: FLAG-HA-Atoh1 (UniProt Q92858)

Substance	D^N Score (FLAG-HA-Atoh1 [1])	Z score (FLAG-HA-Atoh1 [1])	Total peptide (FLAG-HA-Atoh1 [2])	Unique peptide (FLAG-HA-Atoh1 [2])	other results
AHSA1 (from UniProt O95433 1-338)	1	5.03			
BCKDHA (from UniProt P12694 46-445)	2	5.54			
CCDC124 (from UniProt Q96CT7 1-223)	1	5.03			
DMXL1 (from UniProt Q9Y485 1-3027)			13	12	
DYNC1H1 (from UniProt Q14204 2-4646)			87	75	
EIF2C2 (from UniProt Q9UKV8 1-859)	3.16	5.72			
ENAH (from UniProt Q8N8S7 1-591)	1.41	5.71			
FLNC (from UniProt Q14315 1-2725)	1.15	5.21			
GOLGB1 (from UniProt Q14789 1-3259)			12	10	
HECT, UBA and WWE domain containing 1 (Huwe1) protein					poly-ubiquitylation of Atoh1 after Huwe1 knockdown (shRNA) (FLAG-HA-Atoh1 [3]): decreased poly-ubiquitylation was observed after Huwe1 knockdown
HECT, UBA and WWE domain containing 1 (Huwe1) protein, Q7Z6Z7 1-4374	1.5	5.56	279	122	
MAP1B (from UniProt P46821 2-2468)			133	78	
MAPK3 (from UniProt P27361 2-379) (enzyme)	2	5.71			
MDN1 (from UniProt Q9NU22 1-5596)			41	37	
MGA (from UniProt Q8IWI9 1-3065)			29	27	
MYCBP2 (from UniProt O75592 1-4678) (enzyme)			51	47	
Myc-Huwe1 C4341A					wild-type and K48 poly-ubiquitylated Atoh1 (FLAG-Atoh1): The resulting decrease in both wild-type and K48 poly-ubiquitylated Atoh1

Substance	D^N Score (FLAG-HA-Atoh1 [1])	Z score (FLAG-HA-Atoh1 [1])	Total peptide (FLAG-HA-Atoh1 [2])	Unique peptide (FLAG-HA-Atoh1 [2])	other results
NEK9 (from UniProt Q8TD19 2-979) (enzyme)	2.83	5.54			
NT5DC2 (from UniProt Q9H857 1-520)	2	5.71			
PDE4D (from UniProt Q08499 1-809)	1.41	5.71			
PDXK (from UniProt O00764 1-312)	1.41	5.71			
PRDX4 (from UniProt Q13162 38-271)	1.23	4.6			
PRKDC (from UniProt P78527 1-4128) (enzyme)			161	112	
PRRC2C (from UniProt Q9Y520 1-2896)			26	21	
SERPINH1 (from UniProt P50454 19-418)	1	3.92			
SLC3A2 (from UniProt P08195 2-529)	1.41	5.71			
SON (from UniProt P18583 2-2426)			22	20	
TCF3 (from UniProt P15923 1-654)	3.16	5.57			
TNRC6C (from UniProt Q9HCJ0 1-1936)	2	5.71			
TUBA4A (from UniProt P68366 1-448)	3	3.77			
TUBB2B (from UniProt Q9BVA1 1-445)	2.58	4.36			
USP47 (from UniProt Q96K76 1-1375) (enzyme)	2	5.54			
YARS2 (from UniProt Q9Y2Z4 17-477)	1.41	5.71			
ZYX (from UniProt Q15942 2-572)	1.58	5.48			

Second part, led by results:

D^N Score (FLAG-HA-Atoh1 [1])	Z score (FLAG-HA-Atoh1 [1])	Total peptide (FLAG-HA-Atoh1 [2])	Unique peptide (FLAG-HA-Atoh1 [2])	Substance	other results
1	5.03			AAMP (from UniProt Q13685 1-434)	
1.41	5.71			ACOX1 (from UniProt Q15067 1-660)	
		26	26	AKAP9 (from UniProt Q99996 1-3907)	
1.41	5.71			ATP2A1 (from UniProt O14983 1-1001)	
		23	21	CEP350 (from UniProt Q5VT06 1-3117)	
2	5.54			CPOX (from UniProt P36551 111-454)	
2.45	5.6			CTPS2 (from UniProt Q9NRF8 1-586)	
1	5.16			EIF2C1 (from UniProt Q9UL18 1-857)	
1	5.16			EIF2C3 (from UniProt Q9H9G7 1-860)	
1	5.16			FHL3 (from UniProt Q13643 2-280)	
2.45	5.71			GFAP (from UniProt P14136 1-432)	
		36	34	HERC2 (from UniProt O95714 1-4834) (enzyme)	
		79	46	KIF11 (from UniProt P52732 1-1056)	
		51	50	MACF1 (from UniProt Q9UPN3 1-7388)	
		15	14	MAP1A (from UniProt P78559 1-2803)	
		17	16	PLEC (from UniProt Q15149 1-4684)	
1.23	4.6			PRPS1 (from UniProt P60891 2-318)	
		32	30	RNF213 (from UniProt Q63HN8 1-5207) (enzyme)	
		12	12	SACS (from UniProt Q9NZJ4 1-4579)	
1.23	5.24			SEC23A (from UniProt Q15436 2-765)	
1	5.03			SEC23B (from UniProt Q15437 2-767)	
1.41	5.71			SRI (from UniProt P30626 1-198)	
		53	38	SRRM2 (from UniProt Q9UQ35 1-2752)	
2.45	5.71			TCF12 (from UniProt Q99081 1-682)	
		12	12	TRRAP (from UniProt Q9Y4A5 2-3859)	
1.39	2.88			TUBA1C (from UniProt Q9BQE3 1-449)	
		31	26	UBR5 (from UniProt O95071 2-2799) (enzyme)	
1.41	5.42			USP11 (from UniProt P51784 1-963) (enzyme)	
		30	30	UTRN (from UniProt P46939 1-3433)	
